# What was measured:
# [1] = test system: patients with Type 2 diabetes mellitus (T2DM); test: Treatment-emergent adverse events incl. serious, fatal, leading to discontinuation (Example 2); details: Safety population
# [2] = test system: patients with Type 2 diabetes mellitus (T2DM); test: Body weight change from baseline to Week 30 (Example 2); format: in vivo, human
# From the text: Body weight should be obtained with the patient wearing undergarments or very light clothing and no shoes, and with an empty bladder. The same scale should be used throughout the study, and calibrated on a regular basis as recommended by the manufacturer.
# Similar MMRM method or ANCOVA was applied on continuous secondary efficacy endpoints and Cochran-Mantei-Haenszel method stratified by randomization strata was applied on categorical efficacy endpoints.
# [3] = SOC, PT ≥ 3% in any treatment group
substance,measurement,setting,value
Gly(A21)-Arg(B31)-Arg(B32)-human insulin [Insulin Glargine],TEAE leading to permanent treatment discontinuation: Acute myocardial infarction,[1]; PT,1 (0.2%) n (%)
same,TEAE leading to permanent treatment discontinuation: Acute pulmonary oedema,[1]; PT,1 (0.2%) n (%)
same,TEAE leading to permanent treatment discontinuation: Alanine aminotransferase increased,[1]; PT,0 n (%)
same,TEAE leading to permanent treatment discontinuation: Anaphylactic reaction,[1]; PT,0 n (%)
same,TEAE leading to permanent treatment discontinuation: Atrial fibrillation,[1]; PT,0 n (%)
same,TEAE leading to permanent treatment discontinuation: Back pain,[1]; PT,0 n (%)
same,TEAE leading to permanent treatment discontinuation: Bacteraemia,[1]; PT,0 n (%)
same,TEAE leading to permanent treatment discontinuation: Blood creatinine increased,[1]; PT,0 n (%)
same,TEAE leading to permanent treatment discontinuation: Bronchitis,[1]; PT,1 (0.2%) n (%)
same,TEAE leading to permanent treatment discontinuation: Cardiac failure acute,[1]; PT,1 (0.2%) n (%)
same,TEAE leading to permanent treatment discontinuation: Cardiac failure congestive,[1]; PT,0 n (%)
same,TEAE leading to permanent treatment discontinuation: Colitis,[1]; PT,0 n (%)
same,TEAE leading to permanent treatment discontinuation: Comminuted fracture,[1]; PT,1 (0.2%) n (%)
same,TEAE leading to permanent treatment discontinuation: Cough,[1]; PT,1 (0.2%) n (%)
same,TEAE leading to permanent treatment discontinuation: Death,[1]; PT,0 n (%)
same,TEAE leading to permanent treatment discontinuation: Decreased appetite,[1]; PT,0 n (%)
same,TEAE leading to permanent treatment discontinuation: Depression,[1]; PT,1 (0.2%) n (%)
same,TEAE leading to permanent treatment discontinuation: Diabetic mononeuropathy,[1]; PT,0 n (%)
same,TEAE leading to permanent treatment discontinuation: Diarrhoea,[1]; PT,0 n (%)
same,TEAE leading to permanent treatment discontinuation: Drug hypersensitivity,[1]; PT,1 (0.2%) n (%)
same,TEAE leading to permanent treatment discontinuation: Dyspepsia,[1]; PT,1 (0.2%) n (%)
same,TEAE leading to permanent treatment discontinuation: Extradural abscess,[1]; PT,0 n (%)
same,TEAE leading to permanent treatment discontinuation: Fatigue,[1]; PT,1 (0.2%) n (%)
same,TEAE leading to permanent treatment discontinuation: Gastritis erosive,[1]; PT,0 n (%)
same,TEAE leading to permanent treatment discontinuation: Headache,[1]; PT,1 (0.2%) n (%)
same,TEAE leading to permanent treatment discontinuation: Injection site erythema,[1]; PT,0 n (%)
same,TEAE leading to permanent treatment discontinuation: Insomnia,[1]; PT,0 n (%)
same,TEAE leading to permanent treatment discontinuation: Lipase increased,[1]; PT,1 (0.2%) n (%)
same,TEAE leading to permanent treatment discontinuation: Lung cancer metastatic,[1]; PT,0 n (%)
same,TEAE leading to permanent treatment discontinuation: Lung neoplasm malignant,[1]; PT,0 n (%)
same,TEAE leading to permanent treatment discontinuation: Meningitis staphylococcal,[1]; PT,0 n (%)
same,TEAE leading to permanent treatment discontinuation: Myocardial infarction,[1]; PT,1 (0.2%) n (%)
same,TEAE leading to permanent treatment discontinuation: Nausea,[1]; PT,0 n (%)
same,TEAE leading to permanent treatment discontinuation: Pancreatic carcinoma,[1]; PT,1 (0.2%) n (%)
same,TEAE leading to permanent treatment discontinuation: Rash,[1]; PT,1 (0.2%) n (%)
same,TEAE leading to permanent treatment discontinuation: Skin burning sensation,[1]; PT,0 n (%)
same,TEAE leading to permanent treatment discontinuation: Urinary tract infection,[1]; PT,0 n (%)
same,TEAE leading to permanent treatment discontinuation: Urticaria,[1]; PT,0 n (%)
same,TEAE leading to permanent treatment discontinuation: Vomiting,[1]; PT,0 n (%)
same,TEAE: Gastrointestinal disorders,[1]; [3],59 (12.6%) n (%)
same,TEAE: Infections and infestations,[1]; [3],126 (27.0%) n (%)
same,TEAE: Musculoskeletal and connective tissue disorders,[1]; [3],41 (8.8%) n (%)
same,TEAE: Nervous system disorders,[1]; [3],30 (6.4%) n (%)
same,Serious TEAE: Blood and lymphatic system disorders,[1]; SOC,1 (0.2%) n (%)
same,Serious TEAE: Cardiac disorders,[1]; SOC,6 (1.3%) n (%)
same,Serious TEAE: Gastrointestinal disorders,[1]; SOC,0 n (%)
same,Serious TEAE: General disorders and administration site conditions,[1]; SOC,1 (0.2%) n (%)
same,Serious TEAE: Hepatobiliary disorders,[1]; SOC,0 n (%)
same,Serious TEAE: Immune system disorders,[1]; SOC,0 n (%)
same,Serious TEAE: Infections and infestations,[1]; SOC,2 (0.4%) n (%)
same,"Serious TEAE: Injury, poisoning and procedural complications",[1]; SOC,1 (0.2%) n (%)
same,Serious TEAE: Investigations,[1]; SOC,1 (0.2%) n (%)
same,Serious TEAE: Metabolism and nutrition disorders,[1]; SOC,0 n (%)
same,Serious TEAE: Musculoskeletal and connective tissue disorders,[1]; SOC,1 (0.2%) n (%)
same,"Serious TEAE: Neoplasms benign, malignant and unspecified (incl cysts and polyps)",[1]; SOC,4 (0.9%) n (%)
same,Serious TEAE: Nervous system disorders,[1]; SOC,1 (0.2%) n (%)
same,Serious TEAE: Renal and urinary disorders,[1]; SOC,2 (0.4%) n (%)
same,Serious TEAE: Reproductive system and breast disorders,[1]; SOC,0 n (%)
same,"Serious TEAE: Respiratory, thoracic and mediastinal disorders",[1]; SOC,3 (0.6%) n (%)
same,Serious TEAE: Skin and subcutaneous tissue disorders,[1]; SOC,0 n (%)
same,Serious TEAE: Vascular disorders,[1]; SOC,1 (0.2%) n (%)
same,TEAE leading to death: Cardiac disorders,[1]; SOC,2 (0.4%) n (%)
same,TEAE leading to death: General disorders and administration site conditions,[1]; SOC,0 n (%)
same,"TEAE leading to death: Neoplasms benign, malignant and unspecified (incl cysts and polyps)",[1]; SOC,1 (0.2%) n (%)
same,"TEAE leading to death: Respiratory, thoracic and mediastinal disorders",[1]; SOC,1 (0.2%) n (%)
same,TEAE leading to permanent treatment discontinuation: Cardiac disorders,[1]; SOC,3 (0.6%) n (%)
same,TEAE leading to permanent treatment discontinuation: Gastrointestinal disorders,[1]; SOC,1 (0.2%) n (%)
same,TEAE leading to permanent treatment discontinuation: General disorders and administration site conditions,[1]; SOC,1 (0.2%) n (%)
same,TEAE leading to permanent treatment discontinuation: Immune system disorders,[1]; SOC,1 (0.2%) n (%)
same,TEAE leading to permanent treatment discontinuation: Infections and infestations,[1]; SOC,1 (0.2%) n (%)
same,"TEAE leading to permanent treatment discontinuation: Injury, poisoning and procedural complications",[1]; SOC,1 (0.2%) n (%)
same,TEAE leading to permanent treatment discontinuation: Investigations,[1]; SOC,1 (0.2%) n (%)
same,TEAE leading to permanent treatment discontinuation: Metabolism and nutrition disorders,[1]; SOC,0 n (%)
same,TEAE leading to permanent treatment discontinuation: Musculoskeletal and connective tissue disorders,[1]; SOC,0 n (%)
same,"TEAE leading to permanent treatment discontinuation: Neoplasms benign, malignant and unspecified (incl cysts and polyps)",[1]; SOC,1 (0.2%) n (%)
same,TEAE leading to permanent treatment discontinuation: Nervous system disorders,[1]; SOC,1 (0.2%) n (%)
same,TEAE leading to permanent treatment discontinuation: Psychiatric disorders,[1]; SOC,1 (0.2%) n (%)
same,"TEAE leading to permanent treatment discontinuation: Respiratory, thoracic and mediastinal disorders",[1]; SOC,2 (0.4%) n (%)
same,TEAE leading to permanent treatment discontinuation: Skin and subcutaneous tissue disorders,[1]; SOC,1 (0.2%) n (%)
same,Patients with any TEAE,[1],227 (48.6%) n (%)
same,Patients with any TEAE leading to death,[1],3 (0.6%) n (%)
same,Patients with any TEAE leading to permanent treatment discontinuation,[1],9 (1.9%) n (%)
same,Patients with any serious TEAE,[1],19 (4.1%) n (%)
same,LS mean body weight change from baseline to Week 30,[2]; Example 2,+1.10 kg
same,"Body weight, change from baseline to Week 30, LS Mean (SE)","[2]; MMRM, mITT population",−1.11 (0.183) kg
same,"Body weight, Week 30, Mean (SD)",[2]; mITT population,90.68 (16.03) kg
same,"Body weight, Week 30, Median",[2]; mITT population,89.00 kg

# Reference: US12186374B2 (Sanofi-Aventis Deutschland GmbH, priority 2014, dated 2025)
